Measurements from the supplement of paper PMC10567573.

B1: EDARADD (parent)
chain: VEKVLRRWVDEEWPKRERGDPSRH

Variants of: B1
Assay: protein stability index of a GFP-peptide fusion (GPS, HEK-293T) (PSI 1-6); higher = more stable
Settings: c terminus: a fixed tail appended
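Further: lentivirally expressed fusions sorted by FACS into six bins by GFP to DsRed ratio, PSI derived from sequencing read proportions per bin multiplied by bin number.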

Protein stability index of substitutions, site by site:
E11: K 2.08, M 1.74, N 3.19, P 2.2, Q 3.05, R 1.59, S 2.71, T 2.61, V 1.88, W 1.96, Y 2.09
E12: A 1.87, C 2.28, D 2.45, F 1.78, G 2.81, H 1.99, I 2.06, K 2.66, M 2.08, N 1.92, P 2.4, Q 1.95, R 3.4, S 2.36, T 2.27, V 2.12, W 1.54, Y 1.81
W13: A 3.42, C 3.21, D 3, E 3.75, F 2.01, G 4.24, H 4, I 3.35, L 3.38, M 2.62, N 3.86, P 3.75, Q 3.94, R 3.96, S 3.54, T 3.38, V 3.98, Y 2.79
P14: A 2.31, C 3.5, D 2.39, E 2.05, F 2.14, G 2.22, K 2.82, L 2.13, M 2.62, N 2.8, R 3.06, S 2.59, T 2.49, V 2.92, W 2.38, Y 2.32
K15: A 2.72, C 3.18, D 3.17, E 3.96, F 2.74, G 3.44, H 3.55, I 2.82, L 2.41, M 2.97, N 2.25, P 3.58, Q 2.24, R 2.42, S 3.33, T 3.51, V 2.29, W 1.71, Y 2.31
R16: A 3.55, C 2.67, D 2.83, E 3.66, F 2.46, I 3.77, K 2.48, L 2.69, M 2.7, N 3.62, P 3, Q 2.1, S 2.58, T 3.46, V 2.49, Y 2.14
E17: A 3.43, C 2.26, D 3.53, F 2.01, G 3.32, H 3.27, I 2.19, K 2.96, L 2.7, M 2.97, N 2.84, P 1.68, Q 2.99, R 2.85, S 2.44, T 2.45, V 1.96, W 1.83, Y 2.55
R18: A 2.29, C 2.91, D 3.18, E 3.73, F 2.5, G 3.58, H 3.18, I 3.12, K 1.81, L 2.81, M 3.15, N 3.22, P 3.34, Q 3.53, S 2.83, T 2.96, V 2.99, W 2.64, Y 2.44
G19: C 2.52, D 3.1, E 3.14, F 2.05, H 3.06, I 2.6, K 2.79, L 2.37, M 2.54, N 2.41, P 2.89, Q 2.73, R 2.64, S 2.8, T 2.55, V 2.11, W 2.1, Y 2.21
D20: A 3.45, C 2.31, E 2.63, F 2.35, G 2.81, H 2.81, I 2.19, K 3.07, L 2.5, M 2.21, N 2.94, P 2.04, Q 2.5
